{"source": "paper PMC4961952", "about": "(Scientific Reports, 2016)", "proteins": {"B1": {"name": "TH1(MBP): recombinant human tyrosine hydroxylase isoform 1, purified on amylose resin as His6-MBP-TH1 and cleaved by TEV protease (enzyme)", "chain": "not shown", "notes": "residues glycine and alanine left in front of the starting methionine after removal of the fusion partner (told in words); tyrosine hydroxylase isoform 1 (TH1), human, 497 residues (Met1-Gly497); cDNA from pET-TH cloned into pET-MBP-1a; extra glycine in position 2 from cloning; numbers count on: human TH1; Iron-containing preparation (0.25 mol/mol subunit), no cobalt; After cleavage the chain is …"}, "B2": {"name": "TH1(ZZ): recombinant human tyrosine hydroxylase isoform 1, purified on TALON resin as His6-ZZ-TH1 and cleaved by TEV protease (enzyme)", "chain": "not shown", "notes": "residues glycine and alanine left in front of the starting methionine after removal of the fusion partner (told in words); tyrosine hydroxylase isoform 1 (TH1), human, 497 residues (Met1-Gly497); cDNA from pET-TH cloned into pET-ZZ-1a; extra glycine in position 2 from cloning; numbers count on: human TH1; Contains cobalt from the TALON resin (0.70 mol/mol subunit); After cleavage the chain is the …"}}, "target": "the molecule itself", "assay": "SEC; analytical gel filtration of the TEV-cleaved fusion protein on a Superdex 200 Increase 10/300 column"}
{"protein": "B1", "values": [{"measurement": "stoichiometry N", "value": 4}]}
{"protein": "B2", "values": [{"measurement": "stoichiometry N", "value": 4}]}
